Laboratory results as given in patent US20150210756A1 (NEW YORK UNIVERSITY, published 2015).

Legend:
LukS-PV = target: T1, LukS-PV (S. aureus); assay: ELISA on purified, recombinant LukS-PV
T1 construct: also called Panton-Valentine leukocidin S; LukS-PV subunit of the PVL leukotoxin
T1 chain: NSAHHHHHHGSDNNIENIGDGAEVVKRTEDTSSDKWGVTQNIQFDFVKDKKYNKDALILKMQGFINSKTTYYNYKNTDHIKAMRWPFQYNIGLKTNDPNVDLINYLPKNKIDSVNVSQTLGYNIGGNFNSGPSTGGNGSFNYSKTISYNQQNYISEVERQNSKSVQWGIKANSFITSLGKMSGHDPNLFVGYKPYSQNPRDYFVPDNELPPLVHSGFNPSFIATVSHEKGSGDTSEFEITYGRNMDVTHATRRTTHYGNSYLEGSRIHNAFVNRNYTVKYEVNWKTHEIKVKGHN

HlgC = target: T2, HlgC (S. aureus, UniProt Q07227 30-315); assay: ELISA on purified, recombinant HlgC
T2 construct: also called gamma hemolysin C; HlgC subunit
T2 sequence: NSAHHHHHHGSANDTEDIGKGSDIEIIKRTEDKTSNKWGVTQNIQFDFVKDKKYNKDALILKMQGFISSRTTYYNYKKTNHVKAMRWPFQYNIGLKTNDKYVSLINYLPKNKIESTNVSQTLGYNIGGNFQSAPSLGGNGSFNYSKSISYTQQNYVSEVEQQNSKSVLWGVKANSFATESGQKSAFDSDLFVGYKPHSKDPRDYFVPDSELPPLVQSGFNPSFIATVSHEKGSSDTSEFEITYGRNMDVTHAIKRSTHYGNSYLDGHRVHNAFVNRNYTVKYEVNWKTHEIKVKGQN

[1] = target: T3, SdgB-glycosylated recombinant SdrC4 protein (S. aureus, UniProt O86487 51-910); assay: ELISA on coated SdgB-glycosylated SdrC4
T3 construct: also called SdgB-glycosylated SdrC4 protein

Protein A = target: T4, Protein A (Staphylococcus aureus, UniProt P38507 37-477); assay: western blot of S. aureus lysates
T4 construct: also called S. aureus Protein A; SpA

human FcγRI = human FcγRI (human, UniProt P12314 16-288); assay: AlphaScreen competition against biotinylated IgG1
human FcγRIIIa (V158) = human FcγRIIIa (V158) (human, UniProt P08637 17-208); assay: AlphaScreen competition against biotinylated IgG1
human FcγRIIIa (V158), sequence (P08637 17-208 F176V limits assumed): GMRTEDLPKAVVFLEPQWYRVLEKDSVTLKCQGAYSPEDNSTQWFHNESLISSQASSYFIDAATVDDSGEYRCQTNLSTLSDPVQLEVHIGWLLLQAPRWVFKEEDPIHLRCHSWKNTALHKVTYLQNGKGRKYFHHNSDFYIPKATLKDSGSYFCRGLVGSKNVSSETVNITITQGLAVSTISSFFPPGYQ

human FcγRI, sequence (P12314 16-288 limits assumed): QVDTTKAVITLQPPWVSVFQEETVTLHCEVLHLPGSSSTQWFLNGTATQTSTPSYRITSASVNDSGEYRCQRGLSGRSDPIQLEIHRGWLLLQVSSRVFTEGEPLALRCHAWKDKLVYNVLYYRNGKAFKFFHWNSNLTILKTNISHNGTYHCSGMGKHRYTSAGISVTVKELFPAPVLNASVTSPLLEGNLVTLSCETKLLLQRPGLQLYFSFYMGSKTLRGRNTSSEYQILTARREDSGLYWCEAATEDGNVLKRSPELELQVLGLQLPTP
T3 sequence (O86487 51-910, tags left off): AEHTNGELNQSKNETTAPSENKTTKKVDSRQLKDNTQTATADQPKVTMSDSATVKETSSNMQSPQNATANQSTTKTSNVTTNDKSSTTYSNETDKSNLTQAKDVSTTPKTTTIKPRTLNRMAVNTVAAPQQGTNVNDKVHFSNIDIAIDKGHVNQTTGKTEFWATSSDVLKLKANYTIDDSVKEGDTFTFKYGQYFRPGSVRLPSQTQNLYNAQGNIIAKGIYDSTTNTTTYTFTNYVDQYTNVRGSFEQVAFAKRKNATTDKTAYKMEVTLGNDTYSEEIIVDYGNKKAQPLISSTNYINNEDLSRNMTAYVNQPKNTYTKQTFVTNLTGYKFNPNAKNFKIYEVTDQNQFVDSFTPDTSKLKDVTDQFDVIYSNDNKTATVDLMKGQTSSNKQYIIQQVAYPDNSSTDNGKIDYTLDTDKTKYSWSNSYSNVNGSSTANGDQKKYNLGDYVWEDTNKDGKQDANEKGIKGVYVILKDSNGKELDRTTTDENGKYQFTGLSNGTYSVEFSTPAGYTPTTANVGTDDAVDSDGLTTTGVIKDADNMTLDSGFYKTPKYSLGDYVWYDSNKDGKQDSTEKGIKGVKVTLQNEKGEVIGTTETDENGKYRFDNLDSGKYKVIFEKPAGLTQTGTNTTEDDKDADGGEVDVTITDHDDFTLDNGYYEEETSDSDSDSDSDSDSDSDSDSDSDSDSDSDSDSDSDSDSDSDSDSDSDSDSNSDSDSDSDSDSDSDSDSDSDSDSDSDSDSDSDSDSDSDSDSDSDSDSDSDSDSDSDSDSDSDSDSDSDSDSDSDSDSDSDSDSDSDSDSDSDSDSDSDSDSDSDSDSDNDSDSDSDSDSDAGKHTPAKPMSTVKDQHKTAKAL

B1: Luk647 (designed binder)
chain: LPAPKNLVVSRVTEDSARLSWTAPDAAFDSFSIYYGEWDPTGEAIVLTVPGSERSYDLTGLKPGTEYWVLIVGVKGGSTSAPLSAIFTT
Does B1 bind (LukS-PV)?
Result: binds

B2: Luk188 (designed binder)
chain: LPAPKNLVVSRVTEDSARLSWTAPDAAFDSFHIHYWEFNPAGEAIVLTVPGSERSYDLTGLKPGTEYFVGIHGVKGGGISWPLSAIFTT
Does B2 bind (HlgC)?
Result: binds

B3: Luk540 (designed binder)
chain: LPAPKNLVVSRVTEDSARLSWTAPDAAFDSFHIEYPEDTEQGEAIVLTVPGSERSYDLTGLKPGTEYNVHITGVKGGSKSAPLSAIFTT
Does B3 bind (LukS-PV)?
Result: binds

B4: pagibaximab (antibody, V domains shown)
VH: EVMLVESGGGLVQPKGSLKLSCAASGFTFNNYAMNWVRQAPGKGLEWVARIRSKSNNYATFYADSVKDRFTISRDDSQSMLYLQMNNLKTEDTAMYYCVRRGASGIDYAMDYWGQGTSLTVSS
VL: DIVLSQSPAILSASPGEKVTMTCRASSSVNYMHWYQQKPGSSPKPWISATSNLASGVPARFSGSGSGTSYSLTISRVEAEDAATYYCQQWSSNPPTFGGGTMLEIKR
notes: also called anti-LTA mAb
Does B4 bind [1]?
Result: no binding (tested: starting at 10 µg/mL)

B5: Luk357 (designed binder)
chain: LPAPKNLVVSRVTEDSARLSWTAPDAAFDSFTIHYFESLLTGEAISLVVPGSERSYDLTGLKPGTEYLVPIYGVKGGFISQPLIAIFTT
Does B5 bind (HlgC)?
Result: binds

B6: mAb 5133 A6 (Construct 3, CR5133 A6) (antibody)
heavy: not shown
light: EIVLTQSPATLSLSPGERATLSCRASQSVSGYLGWYQQKPGQAPRLLIYGASSRATGIPDRFSGSGSGTDFTLTISRLEPEDFAVYYCQQYGSSPLTFGGGTKLEIKRTVAAPSVFIFPPSDEQLKSGTASVVCLLNNFYPREAKVQWKVDNALQSGNSQESVTEQDSKDSTYSLSSTLTLSKADYEKHKVYACEVTHQGLSSPVTKSFNRGEC
Which results are given for B6?
binding result (Protein A): no binding (tested: 2 µg/mL); binding result (human FcγRI): binds; binding result (human FcγRIIIa (V158)): binds

B7: mAb 5133 PRASA A6 (Construct 4, CR5133 PRASA A6) (antibody)
heavy: EVQLVETGGGLVKPGGSLRLSCSASRFSFRDYYMTWIRQAPGKGPEWVSHISGSGSTIYYADSVRGRFTISRDNAKSSLYLQMDSLQADDTAVYYCARGGRATSYYWVHWGPGTLVTVSSASTKGPSVFPLAPSSKSTSGGTAALGCLVKDYFPEPVTVSWNSGALTSGVHTFPAVLQSSGLYSLSSVVTVPSSSLGTQTYICNVNHKPSNTKVDKKVEPKSCDKTHTCPPCPAPPVAGPDVFLFPPKPKDTLMISRTPEVTCVVVDVSHEDPEVKFNWYVDGVEVHNAKTKPREEQYNSTYRVVSVLTVLHQDWLNGKEYKCKVSNAALPAPIAKTISKAKGQPREPQVYTLPPSRDELTKNQVSLTCLVKGFYPSDIAVEWESNGQPENNYKTTPPVLDSDGSFFLYSKLTVDKSRWQQGNVFSCSVMHEALHNRFTQKSLSLSPGK
light: B6 light
notes: also called PRASA A6 parental mAb
Which results are given for B7?
binding result (Protein A): no binding (tested: 2 µg/mL); binding result (human FcγRI): no binding; binding result (human FcγRIIIa (V158)): binds
